# Source: patent US7238711
# “And” between values parts separate entries of the source, which are not always exact repeats. Identical values can stand only once. No end group written: not given here.
# T1: Duffy Antigen Receptor for Chemokines (DARC) (human), Q16570
# T1 chain: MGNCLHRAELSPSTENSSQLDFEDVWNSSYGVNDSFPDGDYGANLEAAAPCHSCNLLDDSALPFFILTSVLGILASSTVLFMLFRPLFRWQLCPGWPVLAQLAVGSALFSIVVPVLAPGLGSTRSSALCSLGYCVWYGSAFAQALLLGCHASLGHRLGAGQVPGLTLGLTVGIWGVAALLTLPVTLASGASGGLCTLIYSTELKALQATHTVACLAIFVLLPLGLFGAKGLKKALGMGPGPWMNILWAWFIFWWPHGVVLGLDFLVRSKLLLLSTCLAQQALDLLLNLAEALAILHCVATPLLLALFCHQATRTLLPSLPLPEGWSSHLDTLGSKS
# T2: CXCR4 (human), P61073
# T2 chain: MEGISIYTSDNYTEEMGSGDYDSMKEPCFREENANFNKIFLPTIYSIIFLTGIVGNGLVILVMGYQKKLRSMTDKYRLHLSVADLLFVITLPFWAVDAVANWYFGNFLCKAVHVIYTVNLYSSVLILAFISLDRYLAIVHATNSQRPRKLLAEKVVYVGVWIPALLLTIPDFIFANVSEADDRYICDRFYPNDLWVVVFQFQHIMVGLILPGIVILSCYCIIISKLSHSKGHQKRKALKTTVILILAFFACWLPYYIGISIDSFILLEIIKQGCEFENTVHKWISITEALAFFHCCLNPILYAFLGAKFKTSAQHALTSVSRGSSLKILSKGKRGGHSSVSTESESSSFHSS
# T3: CCR4 (human), P51679
# T3 chain: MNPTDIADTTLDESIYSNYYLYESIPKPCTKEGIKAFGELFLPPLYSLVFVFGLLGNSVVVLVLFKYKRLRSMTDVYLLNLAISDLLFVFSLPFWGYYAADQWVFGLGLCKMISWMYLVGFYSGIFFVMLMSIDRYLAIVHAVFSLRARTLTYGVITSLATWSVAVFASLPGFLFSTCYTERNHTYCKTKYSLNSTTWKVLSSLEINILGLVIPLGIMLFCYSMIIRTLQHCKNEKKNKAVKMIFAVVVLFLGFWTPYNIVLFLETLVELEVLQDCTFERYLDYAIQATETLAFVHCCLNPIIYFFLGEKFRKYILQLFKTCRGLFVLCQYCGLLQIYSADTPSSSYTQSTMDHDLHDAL
# T4: CCR1 (human), P32246
# T4 chain: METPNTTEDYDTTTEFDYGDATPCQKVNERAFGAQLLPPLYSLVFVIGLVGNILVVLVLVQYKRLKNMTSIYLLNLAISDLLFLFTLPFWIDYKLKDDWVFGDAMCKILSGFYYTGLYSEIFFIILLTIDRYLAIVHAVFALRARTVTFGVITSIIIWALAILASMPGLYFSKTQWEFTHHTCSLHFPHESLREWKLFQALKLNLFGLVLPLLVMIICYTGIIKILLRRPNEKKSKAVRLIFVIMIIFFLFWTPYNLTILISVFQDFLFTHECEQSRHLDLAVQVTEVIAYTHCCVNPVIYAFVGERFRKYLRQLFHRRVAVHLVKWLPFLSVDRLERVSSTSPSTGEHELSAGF
# T5: CCR3 (human), P51677
# T5 chain: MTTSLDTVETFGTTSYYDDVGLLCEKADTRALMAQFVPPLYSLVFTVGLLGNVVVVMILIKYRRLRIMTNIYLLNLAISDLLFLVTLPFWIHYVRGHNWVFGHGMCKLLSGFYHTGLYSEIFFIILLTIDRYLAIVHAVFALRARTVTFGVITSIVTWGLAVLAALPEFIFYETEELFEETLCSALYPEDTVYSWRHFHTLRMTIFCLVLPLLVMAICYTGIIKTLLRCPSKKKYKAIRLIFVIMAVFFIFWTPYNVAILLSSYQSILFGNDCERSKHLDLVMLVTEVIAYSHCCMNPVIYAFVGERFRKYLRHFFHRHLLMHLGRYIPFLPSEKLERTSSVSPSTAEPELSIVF
# T6: CXCR1 (human), P25024
# T6 chain: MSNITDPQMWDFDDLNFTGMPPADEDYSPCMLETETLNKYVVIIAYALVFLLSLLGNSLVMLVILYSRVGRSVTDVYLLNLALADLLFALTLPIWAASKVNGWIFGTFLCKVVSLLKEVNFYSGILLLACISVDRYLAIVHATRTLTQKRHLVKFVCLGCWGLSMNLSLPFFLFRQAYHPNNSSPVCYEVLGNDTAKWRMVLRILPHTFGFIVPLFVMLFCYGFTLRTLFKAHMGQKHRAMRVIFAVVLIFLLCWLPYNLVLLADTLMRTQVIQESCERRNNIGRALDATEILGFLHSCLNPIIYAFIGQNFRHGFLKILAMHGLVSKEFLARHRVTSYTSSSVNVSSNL
# T7: CXCR2 (human), P25025
# T7 chain: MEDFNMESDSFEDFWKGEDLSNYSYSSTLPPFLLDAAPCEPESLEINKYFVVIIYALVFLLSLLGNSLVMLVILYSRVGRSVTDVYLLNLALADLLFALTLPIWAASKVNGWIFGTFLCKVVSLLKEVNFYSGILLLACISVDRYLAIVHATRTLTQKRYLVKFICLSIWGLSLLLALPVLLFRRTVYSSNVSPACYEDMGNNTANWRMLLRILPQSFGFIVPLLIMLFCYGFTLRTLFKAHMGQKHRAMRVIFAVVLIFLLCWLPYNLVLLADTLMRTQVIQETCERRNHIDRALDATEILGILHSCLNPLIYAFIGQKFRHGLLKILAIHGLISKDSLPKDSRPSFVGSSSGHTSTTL
# Experiments:
# [1] = target: CCR5 (human), P51681; assay: 125I-RANTES Scatchard, parental HOS line (the filing suggests background CCR5); settings: remark: other sources report otherwise
# [2] = target: CCR5 (human), P51681; assay: 12-point Scatchard, parental HOS line (the filing suggests background CCR5); settings: remark: other sources report otherwise
# [3] = target: CCR5 (human), P51681; assay: 12-point Scatchard, HOS CCR5 line; settings: remark: other sources report otherwise
# [4] = target: CCR5 (human), P51681; assay: 125I-RANTES Scatchard, HOS CCR5 line; settings: remark: other sources report otherwise
# [5] = target: CCR5 (human), P51681; assay: 12-point Scatchard, 0.03 nM 125I-RANTES with cold RANTES, 4° C., 2 hours; settings: remark: other sources report otherwise
# [6] = target: chemokine receptors on THP-1 cells; assay: binding to THP-1 cells
# [7] = target: chemokine receptors
# [8] = target: T1, Duffy Antigen Receptor for Chemokines …; assay: estimated ka for red blood cells divided by average inhibitory ED50
# [9] = target: Duffy Antigen Receptor for Chemokines (DARC) (human) (UniProt Q16570); assay: DARC binding, red blood cells (given as association constant)
# [10] = target: chemokine receptors on THP-1 cells; assay: binding to THP-1 cells (given as association constant)
# [11] = target: Duffy Antigen Receptor for Chemokines (DARC) (human) (UniProt Q16570); assay: estimated ka for red blood cells divided by average inhibitory ED50
# [12] = target: T1, Duffy Antigen Receptor for Chemokines …; assay: DARC binding
# [13] = target: T2, CXCR4 (human), P61073; assay: biotin-labeled peptide at 10 µM on HOS transformants, 125I-streptavidin
# [14] = target: T3, CCR4 (human), P51679; assay: as above
# [15] = target: CCR2 (human), P41597; assay: as above
# [16] = target: T4, CCR1 (human), P32246; assay: as above
# [17] = target: T5, CCR3 (human), P51677; assay: as above
# [18] = target: CCR5 (human), P51681; assay: as above
# [19] = target: T6, CXCR1 (human), P25024; assay: biotin-labeled peptide at 10 µM on CHO transformants, 125I-streptavidin
# [20] = target: T7, CXCR2 (human), P25025; assay: as above
# [21] = target: cell surface molecule on THP-1 cells; assay: binding of biotinylated peptide 3 to THP-1 cells, labeled streptavidin
# [22] = target: Duffy Antigen Receptor for Chemokines (DARC) (human) (UniProt Q16570); assay: Duffy binding
# [23] = target: CCR5 (human) (UniProt P51681); assay: not stated (printed as affinity constant)
# [24] = target: CXCR4 (human) (UniProt P61073); assay: not stated (printed as affinity constant)
# [25] = target: Duffy Antigen Receptor for Chemokines (DARC) (human) (UniProt Q16570); assay: Duffy binding, against the LFL peptide
# [26] = target: Duffy Antigen Receptor for Chemokines (DARC) (human) (UniProt Q16570); assay: DARC binding, Table 18
# [27] = target: T1, Duffy Antigen Receptor for Chemokines …; assay: ka for red blood cells divided by ka for THP-1 cells
# [28] = target: chemokine receptors on THP-1 cells; assay: receptors on THP-1 cells against DARC
# [29] = target: chemokine receptors on the surface of Jurkat cells; assay: binding to Jurkat cells
# [30] = target: MCP-1 (human), P13500; assay: cell-based or functional assay
# [31] = target: CCR5 (human), P51681; assay: cell-based or functional assay
# Chain of CCR5 (human), P51681 (P51681 whole entry): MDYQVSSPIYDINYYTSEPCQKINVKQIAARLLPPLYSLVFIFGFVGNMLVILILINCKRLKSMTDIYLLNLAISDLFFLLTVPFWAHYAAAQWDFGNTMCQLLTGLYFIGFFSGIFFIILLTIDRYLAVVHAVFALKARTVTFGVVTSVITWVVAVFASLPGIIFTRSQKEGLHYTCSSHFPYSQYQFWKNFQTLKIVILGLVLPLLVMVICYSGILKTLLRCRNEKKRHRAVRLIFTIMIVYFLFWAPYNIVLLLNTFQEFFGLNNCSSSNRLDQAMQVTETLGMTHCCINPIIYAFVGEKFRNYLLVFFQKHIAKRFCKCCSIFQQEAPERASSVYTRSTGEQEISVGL
# Chain of CCR5 (human) (P51681 whole entry): as above
# Chain of MCP-1 (human), P13500 (P13500 24-99 limits assumed): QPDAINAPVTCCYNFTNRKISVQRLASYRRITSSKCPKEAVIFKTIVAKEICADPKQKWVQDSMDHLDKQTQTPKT
# Chain of CCR2 (human), P41597 (P41597 whole entry): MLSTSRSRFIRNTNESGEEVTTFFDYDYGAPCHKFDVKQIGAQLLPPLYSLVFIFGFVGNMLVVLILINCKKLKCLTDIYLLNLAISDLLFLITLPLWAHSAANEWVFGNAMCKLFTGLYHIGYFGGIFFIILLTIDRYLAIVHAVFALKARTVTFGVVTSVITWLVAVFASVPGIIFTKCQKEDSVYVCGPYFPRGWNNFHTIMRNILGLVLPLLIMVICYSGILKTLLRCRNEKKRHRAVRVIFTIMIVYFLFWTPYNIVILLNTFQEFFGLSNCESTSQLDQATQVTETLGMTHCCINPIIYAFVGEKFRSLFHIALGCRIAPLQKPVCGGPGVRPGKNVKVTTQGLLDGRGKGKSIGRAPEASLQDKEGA
binder,measurement,setting,value
"RANTES, P13501 24-91 (ligand, UniProt P13501 24-91, looked up) SPYSSDTTPCCFAYIARPLPRAHIKEYFYTSGKCSNPAVVFVTRKNRQVCANPEKKWVREYINSLEMS",binding sites per cell (sites per cell),[1],80000
same,binding sites per cell (sites per cell),[2],100000
same,binding sites per cell (sites per cell),[3],200000
same,binding sites per cell (sites per cell),[4],200000 and 400000
same,Kd,[5],0.001 µM
DYFETSSQCSKPGV [Pep2(1-14)[MIP1α]],binding sites per cell (sites per cell),[6],150000
same,IC50,[7],> 100 µM
EICADPSQKWVQ (not fully specified) [Ser7 peptide 3(1-12)[MCP-1]],Duffy selectivity,[8],2
"CQIWKQKPDLC (not fully specified (some residues, bridges); cysteine pairing not given here) [CRD-Cys13Leu4Ile11 peptide 3(3-12)[MCP-1]]",Kd,[9],90 µM
same,binding sites per cell (sites per cell),[6],150000
same,Kd,[10],0.1 to 0.5 µM
same,Duffy selectivity,[11],> 100
EICADPSEEWVQ (not fully specified) [Ser7Glu8Glu9 peptide 3(1-12)[MCP-1]],Duffy selectivity,[8],0.59
SYRRITSSKSPKEAV (not fully specified) [Ser10 variant of peptide 2(1-15)[MCP-1]],DARC binding,[12],20 to 100 µM
CADPKQKWVQ (not fully specified) [Pep3(3-12)[MCP-1]],Duffy selectivity,[8],1.21
CLDPKQKWIQC (not fully specified (N-terminus); cysteine pairing not given here) [N-terminal biotin conjugate of the sequence n'-…-c'],Kd,[13],> 10 µM
same,Kd,[14],> 10 µM
same,Kd,[15],> 10 µM
same,Kd,[16],> 10 µM
same,Kd,[17],> 10 µM
same,Kd,[18],> 10 µM
same,Kd,[19],> 10 µM
same,Kd,[20],> 10 µM
same,binding sites per cell (receptors/cell),[21],1000
VAEKPCKSSTIRRYS (not fully specified (some residues)) [LRD peptide 2(1-15)[MCP-1]],Kd,[22],25 µM
same,Kd,[23],< 0.1 µM
same,Kd,[24],< 0.1 µM
same,fold decrease in Duffy binding against LFL,[25],100 fold
same,DARC binding,[26],18 µM
same,IC50,[7],3 µM
ELRVIESGPHCANTEI (not fully specified) [Pep2(1-16)[IL8]],Duffy selectivity,[27],< 1
"CQVWKQKPDAC (not fully specified (some residues, bridges); cysteine pairing not given here) [CRD-Cys13pep3[3-12]]",Duffy selectivity,[11],8.82
EICLDPKQKWIQ (not fully specified) [Leu4Ile11 peptide 3(1-12)[MCP-1]],fold selectivity over DARC,[28],> 20 fold
same,Duffy selectivity,[8],37.8
SYRRITSSKCPKEAV [peptide 2(1-15)[MCP-1]],binding sites per cell,[6],130000 sites/cell
same,binding sites per cell,[29],55000 sites/cell
same,IC50,[7],0.4 µM
AQPDAINAPVTCC (not fully specified; cysteine pairing not given here) [Peptide 1[MCP-1]],"inhibition of MCP-1 induced THP-1 migration, peptide with the chemokine in the lower compartment",[30],48%
HLKILNTPNCALQIV [Pep2(1-15)[SDF1]],IC50,[7],35 µM
EICADPKQKWVQ (not fully specified) [peptide 3(1-12)[MCP-1]],Duffy selectivity,[8]; remark: other sources report otherwise,1
same,"decrease in HIV infection of THP-1 cells, immunofluorescence staining",[31],83%
